The numbers were not newly measured in PMC7062049, which cites them from elsewhere.

The target of this data set is HP1β CSD (Mus musculus) (UniProt P83917).

For the substance HP1β CSD (from UniProt P83917), the dissociation constant Kd was 150 nM.
